{"source": "patent US20130273089A1", "about": "(TOLERA THERAPEUTICS, published 2013)", "binders": {"B1": {"name": "TOL101 murine anti-αβ TCR monoclonal IgM antibody produced by the hybridoma TOL101 MCB (ATCC PTA-13293) (antibody)", "heavy": "QVQLQQSGAELARPGASVKMSCKASGYTFTSYTMHWVKQRPGQGLEWIGYINPSSGYTNYNQKFKDKATLTADKSSSTAYMQLSSLTSEDSAVYYCARWRDAYYAMDYWGQGTSVTVSSESQSFPNVFPLVSCESPLSDKNLVAMGCLARDFLPSTISFTWNYQNNTEVIQGIRTFPTLRTGGKYLATSQVLLSPKSILEGSDEYLVCKIHYGGKNRDLHVPIPAVAEMNPNVNVFVPPRDGFSGPAPRKSKLICEATNFTPKPITVSWLKDGKLVESGFTTDPVTIENKGSTPQTYKVISTLTISEIDWLNLNVYTCRVDHRGLTFLKNVSSTCAASPSTDILTFTIPPSFADIFLSKSANLTCLVSNLATYETLNISWASQSGEPLETKIKIMESHPNGTFSAKGVASVCVEDWNNRKEFVCTVTHRDLPSPQKKFISKPNEVHKHPPAVYLLPPAREQLNLRESATVTCLVKGFSPADISVQWLQRGQLLPQEKYVTSAPMPEPGAPGFYFTHSILTVTEEEWNSGETYTCVVGHEALPHLVTERTVDKSTGKPTLYNVSLIMSDTGGTCY", "light": "QIVLTQSPAIMSASPGEKVTMTCSASSSVSYMHWYQQKSGTSPKRWIYDTSKLASGVPARFSGSGSGTSYSLTISSMEAEDAATYYCQQWSSNPFTFGSGTKLEIKRADAAPTVSIFPPSSEQLTSGGASVVCFLNNFYPKDINVKWKIDGSERQNGVLNSWTDQDSKDSTYSMSSTLTLTKDEYERHNSYTCEATHKTSTSPIVKSFNRNEC", "chain": "GDDEATILADNKCMCTRVTSRIIPSTEDPNEDIVERNIRIVVPLNNRENISDPTSPLRRNFVYHLSDVCKKCDPVEVELEDQVVTATQSNICNEDDGVPETCYMYDRNKCYTTMVPLRYHGETKMVQAALTPDSCYPD", "notes": "Murine IgM kappa (IgMκ); It was detected with anti-mouse IgM in flow cytometry; also called TOL101 antibody; TOL101 mAb"}}, "key": {"[1]": {"molecular_target": "human αβ T cell receptor (αβ TCR) on T cells (human)", "assay": "cell-based or functional assay"}, "[2]": {"molecular_target": "T1, CD14 on cells expressing CD14 (monocyte lineage/NK cells) (UniProt P08571 20-345, limits assumed)", "T1 construct": "whole, on cells", "T1 sequence (looked up)": "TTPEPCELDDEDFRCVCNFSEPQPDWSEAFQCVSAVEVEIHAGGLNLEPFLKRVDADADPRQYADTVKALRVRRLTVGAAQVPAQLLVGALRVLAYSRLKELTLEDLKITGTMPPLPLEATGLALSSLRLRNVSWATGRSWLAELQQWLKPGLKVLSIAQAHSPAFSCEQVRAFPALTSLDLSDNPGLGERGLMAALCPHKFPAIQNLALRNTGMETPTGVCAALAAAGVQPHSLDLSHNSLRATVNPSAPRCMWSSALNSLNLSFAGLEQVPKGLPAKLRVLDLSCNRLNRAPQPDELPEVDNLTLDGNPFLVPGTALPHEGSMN", "assay": "flow cytometry on PBMC from 6 donors"}}}
{"binder": "B1", "values": [{"measurement": "calcium flux in CD4 T cells (Fluo-4) (% of CD4 T cells)", "setting": "[1]", "result": 15}, {"measurement": "binding result", "setting": "[2]", "result": "no binding"}]}
